Experimental data reported in patent US20140072613A1 (published 2014).

T1: IKKα(h) (human, UniProt O15111 1-745)
T1 sequence (looked up): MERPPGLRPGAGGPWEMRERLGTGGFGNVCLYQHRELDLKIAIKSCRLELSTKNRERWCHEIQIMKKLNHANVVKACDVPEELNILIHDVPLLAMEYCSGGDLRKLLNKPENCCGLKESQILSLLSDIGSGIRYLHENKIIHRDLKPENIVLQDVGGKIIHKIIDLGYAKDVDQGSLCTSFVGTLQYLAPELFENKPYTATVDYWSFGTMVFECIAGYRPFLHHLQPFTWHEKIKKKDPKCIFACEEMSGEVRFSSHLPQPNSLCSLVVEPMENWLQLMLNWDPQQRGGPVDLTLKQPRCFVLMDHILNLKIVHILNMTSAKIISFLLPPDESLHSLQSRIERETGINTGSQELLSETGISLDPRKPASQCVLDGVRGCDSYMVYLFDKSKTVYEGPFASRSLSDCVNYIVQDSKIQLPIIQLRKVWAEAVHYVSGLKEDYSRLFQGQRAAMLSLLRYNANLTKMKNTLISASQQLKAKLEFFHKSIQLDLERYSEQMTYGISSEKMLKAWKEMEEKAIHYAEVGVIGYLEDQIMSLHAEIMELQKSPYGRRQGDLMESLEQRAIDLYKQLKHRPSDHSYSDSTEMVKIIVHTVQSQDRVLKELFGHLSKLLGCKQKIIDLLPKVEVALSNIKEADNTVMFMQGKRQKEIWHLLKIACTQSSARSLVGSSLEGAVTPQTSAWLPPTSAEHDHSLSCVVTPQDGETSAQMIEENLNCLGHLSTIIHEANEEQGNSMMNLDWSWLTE

T2: Txk(h) (human, UniProt P42681 1-527, limits assumed)
T2 sequence (looked up): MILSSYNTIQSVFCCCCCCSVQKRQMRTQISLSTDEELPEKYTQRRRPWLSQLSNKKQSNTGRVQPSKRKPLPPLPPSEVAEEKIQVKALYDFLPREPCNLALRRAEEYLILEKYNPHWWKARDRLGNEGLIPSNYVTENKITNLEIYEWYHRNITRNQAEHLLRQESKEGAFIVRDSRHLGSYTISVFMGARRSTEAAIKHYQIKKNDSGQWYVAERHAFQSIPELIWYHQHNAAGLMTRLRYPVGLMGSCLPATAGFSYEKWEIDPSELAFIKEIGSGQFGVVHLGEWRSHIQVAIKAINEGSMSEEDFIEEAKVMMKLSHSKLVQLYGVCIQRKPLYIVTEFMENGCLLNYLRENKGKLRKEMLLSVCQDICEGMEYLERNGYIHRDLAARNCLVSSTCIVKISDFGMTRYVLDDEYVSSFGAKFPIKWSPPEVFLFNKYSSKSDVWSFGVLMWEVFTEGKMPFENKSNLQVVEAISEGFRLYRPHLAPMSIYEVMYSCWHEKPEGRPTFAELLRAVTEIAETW

T3: Bmx(h) (human, UniProt P51813 1-675, limits assumed)
T3 sequence (looked up): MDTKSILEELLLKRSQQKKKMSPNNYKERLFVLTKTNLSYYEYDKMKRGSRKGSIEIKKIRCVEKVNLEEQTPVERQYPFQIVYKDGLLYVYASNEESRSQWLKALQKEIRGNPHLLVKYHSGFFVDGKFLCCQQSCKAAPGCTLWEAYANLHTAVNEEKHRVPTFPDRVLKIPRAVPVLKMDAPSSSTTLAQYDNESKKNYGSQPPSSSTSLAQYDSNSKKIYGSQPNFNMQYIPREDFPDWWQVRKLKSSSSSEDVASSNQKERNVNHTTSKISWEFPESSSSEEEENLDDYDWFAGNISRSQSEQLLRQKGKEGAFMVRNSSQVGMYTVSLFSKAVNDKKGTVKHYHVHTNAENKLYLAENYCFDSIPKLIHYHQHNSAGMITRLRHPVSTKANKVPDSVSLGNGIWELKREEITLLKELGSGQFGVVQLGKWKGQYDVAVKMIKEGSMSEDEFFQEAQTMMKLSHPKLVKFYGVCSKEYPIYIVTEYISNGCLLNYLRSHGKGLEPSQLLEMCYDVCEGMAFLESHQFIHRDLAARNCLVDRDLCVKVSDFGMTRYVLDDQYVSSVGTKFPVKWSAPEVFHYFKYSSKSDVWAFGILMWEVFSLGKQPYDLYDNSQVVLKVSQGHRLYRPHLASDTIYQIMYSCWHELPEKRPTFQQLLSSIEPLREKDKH


Columns and labels:
Assay in all cases: cell-based or functional assay
Lck(h) = Lck(h) (human, UniProt P06239 1-509)
Sequence of Lck(h) (P06239 whole entry): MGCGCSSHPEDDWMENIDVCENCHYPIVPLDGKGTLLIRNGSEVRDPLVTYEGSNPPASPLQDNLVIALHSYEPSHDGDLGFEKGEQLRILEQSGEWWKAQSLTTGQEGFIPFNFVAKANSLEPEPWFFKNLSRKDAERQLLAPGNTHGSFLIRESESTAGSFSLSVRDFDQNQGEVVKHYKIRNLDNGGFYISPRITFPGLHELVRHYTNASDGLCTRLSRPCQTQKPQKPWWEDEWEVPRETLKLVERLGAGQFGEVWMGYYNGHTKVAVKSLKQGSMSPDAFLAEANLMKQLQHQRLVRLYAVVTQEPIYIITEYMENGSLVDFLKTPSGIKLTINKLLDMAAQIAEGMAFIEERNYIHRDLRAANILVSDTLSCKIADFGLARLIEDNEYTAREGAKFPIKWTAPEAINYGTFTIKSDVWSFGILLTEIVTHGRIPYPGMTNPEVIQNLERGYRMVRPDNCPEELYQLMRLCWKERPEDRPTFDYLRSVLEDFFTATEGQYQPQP

IKKα(h) = biological target: T1, IKKα(h)
cKit(D816H)(h) = cKit(D816H)(h) (human, UniProt P10721 544-976)
Sequence of cKit(D816H)(h) (P10721 544-976 D816H): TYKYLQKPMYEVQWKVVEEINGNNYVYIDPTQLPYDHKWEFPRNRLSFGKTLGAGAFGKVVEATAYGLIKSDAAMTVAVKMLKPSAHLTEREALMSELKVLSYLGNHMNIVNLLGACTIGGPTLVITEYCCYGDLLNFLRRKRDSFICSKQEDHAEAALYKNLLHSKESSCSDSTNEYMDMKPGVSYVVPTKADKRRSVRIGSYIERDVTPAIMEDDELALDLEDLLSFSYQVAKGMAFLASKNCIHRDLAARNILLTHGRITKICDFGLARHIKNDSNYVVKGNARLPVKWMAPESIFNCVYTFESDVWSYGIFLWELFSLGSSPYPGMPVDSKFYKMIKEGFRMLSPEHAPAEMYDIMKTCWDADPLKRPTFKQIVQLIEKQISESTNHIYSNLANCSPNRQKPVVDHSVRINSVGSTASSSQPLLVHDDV

Txk(h) = biological target: T2, Txk(h)
PKBβ(h) = PKBβ(h) (human, UniProt P31751 1-481, limits assumed)
Sequence of PKBβ(h) (P31751 whole entry): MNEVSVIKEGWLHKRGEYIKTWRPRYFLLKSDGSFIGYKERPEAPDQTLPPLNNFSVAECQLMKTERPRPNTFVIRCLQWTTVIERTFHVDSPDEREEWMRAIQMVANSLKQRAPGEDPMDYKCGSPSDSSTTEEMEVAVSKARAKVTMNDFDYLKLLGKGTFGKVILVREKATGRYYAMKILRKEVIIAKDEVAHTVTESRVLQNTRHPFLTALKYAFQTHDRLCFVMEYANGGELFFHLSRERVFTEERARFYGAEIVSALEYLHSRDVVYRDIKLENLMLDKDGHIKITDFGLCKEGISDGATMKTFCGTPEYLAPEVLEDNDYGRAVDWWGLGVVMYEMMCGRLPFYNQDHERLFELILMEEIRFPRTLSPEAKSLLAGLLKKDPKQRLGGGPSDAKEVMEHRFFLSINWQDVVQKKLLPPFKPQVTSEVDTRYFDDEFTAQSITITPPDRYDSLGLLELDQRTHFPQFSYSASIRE

MAPKAP-K3(h) [1] = biological target: T4, MAPKAP-K3(h) (human, UniProt Q16644 1-382, limits assumed)
T4 sequence (Q16644 whole entry): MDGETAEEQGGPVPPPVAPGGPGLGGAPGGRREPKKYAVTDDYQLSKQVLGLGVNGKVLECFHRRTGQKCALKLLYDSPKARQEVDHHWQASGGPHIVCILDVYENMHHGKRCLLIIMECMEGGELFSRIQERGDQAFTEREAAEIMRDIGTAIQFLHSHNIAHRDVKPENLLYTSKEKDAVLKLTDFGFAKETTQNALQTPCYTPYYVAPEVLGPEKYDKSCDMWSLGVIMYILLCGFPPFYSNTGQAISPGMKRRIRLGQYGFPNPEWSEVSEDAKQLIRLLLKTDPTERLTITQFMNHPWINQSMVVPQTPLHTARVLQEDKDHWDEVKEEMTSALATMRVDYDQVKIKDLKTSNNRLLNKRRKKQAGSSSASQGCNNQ

CaMKI(h) = CaMKI(h) (human, UniProt Q14012 1-370)
Sequence of CaMKI(h) (Q14012 whole entry): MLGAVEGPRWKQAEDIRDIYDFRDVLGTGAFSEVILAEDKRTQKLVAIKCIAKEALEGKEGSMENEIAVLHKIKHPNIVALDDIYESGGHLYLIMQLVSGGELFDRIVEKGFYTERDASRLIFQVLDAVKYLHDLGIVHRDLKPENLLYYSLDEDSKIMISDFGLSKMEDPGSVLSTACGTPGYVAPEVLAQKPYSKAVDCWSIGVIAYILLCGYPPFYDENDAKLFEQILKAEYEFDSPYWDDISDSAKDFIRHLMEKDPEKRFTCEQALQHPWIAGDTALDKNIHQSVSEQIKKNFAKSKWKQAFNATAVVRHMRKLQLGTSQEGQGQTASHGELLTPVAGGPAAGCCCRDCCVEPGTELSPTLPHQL

MAPKAP-K2(h) = MAPKAP-K2(h) (human, UniProt P49137 46-400)
Sequence of MAPKAP-K2(h) (P49137 46-400 limits assumed): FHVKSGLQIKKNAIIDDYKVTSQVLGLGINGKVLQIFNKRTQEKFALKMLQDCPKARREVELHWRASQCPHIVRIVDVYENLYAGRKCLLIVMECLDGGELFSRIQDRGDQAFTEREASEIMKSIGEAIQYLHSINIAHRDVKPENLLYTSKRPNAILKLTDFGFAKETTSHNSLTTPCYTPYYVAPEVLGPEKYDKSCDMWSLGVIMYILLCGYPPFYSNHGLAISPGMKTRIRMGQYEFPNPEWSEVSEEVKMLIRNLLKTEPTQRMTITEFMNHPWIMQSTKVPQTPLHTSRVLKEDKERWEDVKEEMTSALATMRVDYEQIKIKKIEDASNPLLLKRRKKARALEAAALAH

MAPKAP-K3(h) [2] = biological target: T4, MAPKAP-K3(h); remark: listed apart in the source
TrkB(h) = TrkB(h) (human, UniProt Q16620 455-822, limits assumed)
Sequence of TrkB(h) (Q16620 455-822 limits assumed): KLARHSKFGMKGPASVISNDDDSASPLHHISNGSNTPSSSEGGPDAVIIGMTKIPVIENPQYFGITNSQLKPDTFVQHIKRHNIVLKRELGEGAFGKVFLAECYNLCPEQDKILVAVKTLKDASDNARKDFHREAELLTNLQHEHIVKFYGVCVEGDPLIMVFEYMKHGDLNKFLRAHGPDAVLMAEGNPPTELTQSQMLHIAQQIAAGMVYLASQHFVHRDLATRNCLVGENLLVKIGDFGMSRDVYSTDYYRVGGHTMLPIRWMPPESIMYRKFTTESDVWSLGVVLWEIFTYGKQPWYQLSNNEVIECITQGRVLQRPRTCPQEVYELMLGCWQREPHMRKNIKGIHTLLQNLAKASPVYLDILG

cKit(V560G)(h) = cKit(V560G)(h) (human, UniProt P10721 544-976)
Sequence of cKit(V560G)(h) (P10721 544-976 V560G): as the sequence (P10721 544-976 D816H) above, with V17G, H273D counted along it

FAK(h) = FAK(h) (human, UniProt Q05397 1-1052, limits assumed)
Bmx(h) = biological target: T3, Bmx(h)
CK2α2(h) = CK2α2(h) (human, UniProt P19784 1-350)
Sequence of CK2α2(h) (P19784 whole entry): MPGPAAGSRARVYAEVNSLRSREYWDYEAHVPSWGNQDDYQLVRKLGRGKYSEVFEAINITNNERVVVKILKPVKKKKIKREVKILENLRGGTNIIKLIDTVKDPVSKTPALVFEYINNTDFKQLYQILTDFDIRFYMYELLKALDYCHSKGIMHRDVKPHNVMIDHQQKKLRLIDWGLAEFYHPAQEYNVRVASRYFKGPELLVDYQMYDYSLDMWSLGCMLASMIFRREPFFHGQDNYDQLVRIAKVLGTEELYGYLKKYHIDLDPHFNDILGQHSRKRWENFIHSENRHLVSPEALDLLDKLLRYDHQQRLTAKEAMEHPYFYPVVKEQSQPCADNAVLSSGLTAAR

SRPK2(h) = SRPK2(h) (human, UniProt P78362 1-688, limits assumed)
Sequence of SRPK2(h) (P78362 whole entry): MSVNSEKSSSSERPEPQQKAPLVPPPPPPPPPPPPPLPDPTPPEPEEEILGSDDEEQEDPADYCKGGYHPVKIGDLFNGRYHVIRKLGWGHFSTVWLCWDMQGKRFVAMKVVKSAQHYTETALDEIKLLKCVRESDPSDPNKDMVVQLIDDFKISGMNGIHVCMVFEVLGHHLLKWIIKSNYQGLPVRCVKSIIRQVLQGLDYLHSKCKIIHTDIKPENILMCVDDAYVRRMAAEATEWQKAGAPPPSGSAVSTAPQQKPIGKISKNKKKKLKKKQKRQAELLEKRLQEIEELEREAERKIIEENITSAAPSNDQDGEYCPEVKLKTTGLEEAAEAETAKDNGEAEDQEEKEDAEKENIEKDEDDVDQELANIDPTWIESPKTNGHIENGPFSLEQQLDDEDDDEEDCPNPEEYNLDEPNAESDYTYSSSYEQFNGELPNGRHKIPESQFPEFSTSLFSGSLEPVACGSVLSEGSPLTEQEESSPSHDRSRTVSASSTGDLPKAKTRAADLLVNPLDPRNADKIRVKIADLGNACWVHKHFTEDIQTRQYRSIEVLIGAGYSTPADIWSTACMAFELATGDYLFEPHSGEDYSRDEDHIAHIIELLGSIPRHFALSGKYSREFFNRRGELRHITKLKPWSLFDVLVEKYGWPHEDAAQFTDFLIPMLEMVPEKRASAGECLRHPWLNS

TLK2(h) = TLK2(h) (human, UniProt Q86UE8 1-772, limits assumed)
Sequence of TLK2(h) (Q86UE8 whole entry): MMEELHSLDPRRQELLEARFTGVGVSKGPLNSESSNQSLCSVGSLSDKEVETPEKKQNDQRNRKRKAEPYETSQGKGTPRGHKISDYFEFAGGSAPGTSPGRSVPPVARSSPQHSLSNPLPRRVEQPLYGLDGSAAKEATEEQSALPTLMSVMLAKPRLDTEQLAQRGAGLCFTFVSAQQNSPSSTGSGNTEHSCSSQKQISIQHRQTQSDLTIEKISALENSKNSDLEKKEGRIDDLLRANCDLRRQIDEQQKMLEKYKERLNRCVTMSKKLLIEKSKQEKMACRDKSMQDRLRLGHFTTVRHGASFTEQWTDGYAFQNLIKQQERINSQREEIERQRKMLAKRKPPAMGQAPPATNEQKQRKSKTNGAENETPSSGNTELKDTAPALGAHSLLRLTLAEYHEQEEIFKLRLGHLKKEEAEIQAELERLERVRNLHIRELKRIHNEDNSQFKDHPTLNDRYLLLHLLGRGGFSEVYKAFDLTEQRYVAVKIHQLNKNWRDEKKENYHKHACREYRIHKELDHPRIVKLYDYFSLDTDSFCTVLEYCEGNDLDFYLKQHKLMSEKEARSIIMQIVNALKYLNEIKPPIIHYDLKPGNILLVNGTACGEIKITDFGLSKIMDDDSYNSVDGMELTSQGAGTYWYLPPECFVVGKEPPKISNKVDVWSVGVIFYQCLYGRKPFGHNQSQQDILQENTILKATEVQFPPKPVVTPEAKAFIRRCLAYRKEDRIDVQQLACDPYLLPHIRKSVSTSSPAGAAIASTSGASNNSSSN

Tie2(R849W)(h) = Tie2(R849W)(h) (human, UniProt Q02763 771-1124, limits assumed)

Row | Binder | % activity, 100 µM (Lck(h)) [%] | % activity, 100 µM (IKKα(h)) [%] | % activity, 100 µM (cKit(D816H)(h)) [%] | % activity, 100 µM (Txk(h)) [%] | % activity, 100 µM (PKBβ(h)) [%] | % activity, 100 µM (MAPKAP-K3(h) [1]) [%] | inhibition of kinase activity at 100 µM (CaMKI(h)) [%] | inhibition of kinase activity at 100 µM (MAPKAP-K2(h)) [%] | inhibition of kinase activity at 100 µM (MAPKAP-K3(h) [2]) [%] | inhibition of kinase activity at 100 µM (TrkB(h)) [%] | % activity, 100 µM (cKit(V560G)(h)) [%] | % activity, 100 µM (FAK(h)) [%] | % activity, 100 µM (Bmx(h)) [%] | % activity, 100 µM (CK2α2(h)) [%] | % activity, 100 µM (SRPK2(h)) [%] | % activity, 100 µM (TLK2(h)) [%] | % activity, 100 µM (Tie2(R849W)(h)) [%]
1 | FAKLAARLYRKALARQLGVAA [MMI-0300] | -2 | 93 | 126 | 48 | 84 | 3 | > 65 | > 65 | > 65 | > 65 | – | – | – | – | – | – | –
2 | KAFAKLAARLYRKALARQLGVAA [MMI-0400] | – | 87 | 143 | 37 | 98 | 7 | > 65 | > 65 | > 65 | > 65 | 124 | 96 | 26 | 96 | 97 | 151 | 108
